Laboratory results from the nanobody polyreactivity screen of Harvey et al. (2022).

Assay: yeast display, Sf9 membrane polyspecificity reagent, FACS + sequencing; frameworks hold sequencing errors
In short: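 Sorting gates, low and high (top ~1%), were placed on anti-HA fluorescence to track expression and on streptavidin fluorescence to track reagent binding. A clone's polyreactivity label is taken from the gate it came out of. The reagent was 10% biotinylated, detergent-solubilized Sf9 membrane, applied for 1 hour at 4 °C to galactose-induced yeast display cells.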

| Sequence | polyreactivity (PSR sort gate) |
| --- | --- |
| QVQLVESGGGLVQAGGSLRLSCAASGRIFVRNAMGWYRQAPGKERELVAAITSGAGSTNYADSVKGRFTISRDNAKNTVYLQMNSLKPEDTAVYYCAADYETGAVSILDDYWGQGTQVTVSS | low polyreactivity |
| QVQLVESGGGLVQAGGSLRLSCAASGRIFVRNAMGWYRQAPGKERELVADITNGGSTNYADSVKGRFTISRDNAKNTVYLQMNSLKPEYTAVYYCAADTLGVYDGDYWGQGTQVTVSS | low polyreactivity |
| QVQLVESGGGLVQAGGSLRLSCAASGRIFVRNAMGWYRQAPGKERELVAGISKRGSRTYYADSVKGRFTISRDNPKNTVYLQMNSLKPEDTAVYYCAVRSYIASYRDARIRFYYWGQGTQVTVSS | high polyreactivity |
| QVQLVESGGGLVQAGGSLRLSCAASGRIFVRNAMGWYRQAPGKERELVASISSSSGSTYYADSVKGRFTISRDNAKNTVYIQMNSLKPEDTAVYYCNAGYHFVHWPHVKHKKFDYWGQGTQVTVSS | low polyreactivity |
| QVQLVESGGGLVQAGGSLRLSCAASGRIFVRNPMGWYRQAPGKERELVADITNGGSTNYADSVKGRFTISRDNAKNTVYLQMNSLKPEDTAVYYCAATYPYSWVYSGYYYWGQGTQVTVSS | low polyreactivity |
| QVQLVESGGGLVQAGGSLRLSCAASGRIFVRYAMGWYRQAPGKERELVAAITKSGGSTYYADSVKGRFTISRDNAKNTVYLQMNSLKPEDTAVYYCNADRFYIDYTNTYDSIRDYWGQGTQVTVSS | low polyreactivity |
| QVQLVESGGGLVQAGGSLRLSCAASGRIFVRYTMGWYRQAPGKERELVAAITKRGGSTYYADSVKGRFTISRDNAKNTVYLQMNSLKPEDTAVYYCATDGLGYNRPQDEYWGQGTQVTVSS | high polyreactivity |
| QVQLVESGGGLVQAGGSLRLSCAASGRIFVSNDMGWYRQAPGKERELVAAISWSDDSTHYADSVKGRFTISRDNAKNTVYLQMNSLKPEDTAVYYCNKQRYYSTWRYDYWGQGTQVTVSS | low polyreactivity |
| QVQLVESGGGLVQAGGSLRLSCAASGRIFVSYDMGWYRQAPGKEREFVAAIRRSGSSTYYADSVKGRFTISRDNAKNTVYLQMNSLKPEDTAVYYCAAYQRSRTLRRYDYWGQGTQVTVSS | high polyreactivity |
| QVQLVESGGGLVQAGGSLRLSCAASGRIFVTYAMGWYRHAPGKERELVAAITSDGSTSYADSVKGRFTISRDNAKNTGYLQMNRLKPEDTAVYYSAKDFFEHSPVSHTYSSSKYEYWGQGTQVTVSS | low polyreactivity |
| QVQLVESGGGLVQAGGSLRLSCAASGRIFVTYAMGWYRQAPGKERELVAVISWSGGSTYYADSVKGRFTISRDNAKNTVYLQMNSLKPEDTAVYYCARGLRKVRFDYWGQGTQVTVSS | low polyreactivity |
| QVQLVESGGGLVQAGGSLRLSCAASGRIFVVNAMGWYRQAPGKERELVATITRGASTYADSVKGRFTISRDNAKNTVYLQMNSLKPEDTAVYYCAARSGSWGQGTQVTVSS | high polyreactivity |
| QVQLVESGGGLVQAGGSLRLSCAASGRIFVVNAMGWYRQAPGTERELVAAITRRGGSTYADSVKGRFTISRDNAKNTVYLQMNSLKPEDTAVYYCNAESYYGIFRYKYDYWGQGTQVTVSS | high polyreactivity |
| QVQLVESGGGLVQAGGSLRLSCAASGRIFVVNDMGWYRQAPGKERELVAAMNSGGRTNYADSVKGRFTISRDNAKNTVYLQMPSLKPEDTAVYYCNAKRTGPWFLHVPVYYWGQGTQVTVSS | low polyreactivity |
| QVQLVESGGGLVQAGGSLRLSCAASGRIFVVYAMGWYRQAPGKESELVATISGGSTNYADSVKGRFTISRDNAKNTVYLQMNSVKPDDTAVYYCGMEYWGQGTQVTVSS | low polyreactivity |
| QVQLVESGGGLVQAGGSLRLSCAASGRIFVVYTMRWYRQAPGNERELVASIRGSGDSTNYADSVKGRFTISRDNAKNTVYLQMNSLKPEDTAVYYCAADLPWSRRYSYRYGYWGQGTQVTVSS | low polyreactivity |
| QVQLVESGGGLVQAGGSLRLSCAASGRIFVYNAMGWYRQAPGKERELVAAISKGGGSTYYADSVKGRFTISRDNAKNTVYLQMNSLKPEDTAVYYCAAVVSGRYWGKKITYDYWGQGTQVSVSS | high polyreactivity |
| QVQLVESGGGLVQAGGSLRLSCAASGRIFVYNTMGWYRQAPGKERELVAAITSGGNTYYADSVKGRFTISRDNAKNSVYLQMNSLKPEDTAVYYCNAYPGYDPYRRYDYWGQGTQVTVSS | high polyreactivity |
| QVQLVESGGGLVQAGGSLRLSCAASGRIFVYYAMGWYRQAPGKERELVAAITSGGGSTYYADSVKGRFTISRDNAKNTVYLQMNSLKPEDTAVYYCNKGYYYPYDYWGQGTQVTVSS | high polyreactivity |
| QVQLVESGGGLVQAGGSLRLSCAASGRIFVYYAMGWYRQAPGKERELVAAMNAGGSTNYADSVKGRFTISRDNAKNNVYLQMYSLKPEDTAVYYCAAVRRSRYSYRGYYWGQGTQVTVSS | high polyreactivity |
| QVQLVESGGGLVQAGGSLRLSCAASGRIFVYYAMGWYRQAPGKERELVATISSGGSTYYADSVKGRFTISRDNAKNTVYLQMNSLKPEDTAVYYCAADNVNRYLAYYYKGDYWGQGTQVTVSS | low polyreactivity |

| Sequence | polyreactivity (PSR sort gate) |
| --- | --- |
| QVQLVESGGGLVQAGGSLRLSCAASGRIFWANAMGWYRQAPGKERELVATISRSGGTTYYADSVKGRFTISRDNAKNTVYLQMNSLKPEATAVYYCAAEDWSLYDYGDRLWYSPYYYWGQGTQVTVSS | high polyreactivity |
| QVQLVESGGGLVQAGGSLRLSCAASGRIFWDNAMGWYRQAPGKERELVAAISDSVVITYYADSVKGRFTISRDNAKNTVYLQMNSLKPEDTAVYYCNTDARYDEYDEFDYWGQGTQVTVSS | low polyreactivity |
| QVQLVESGGGLVQAGGSLRLSCAASGRIFWDNAMGWYRQAPGKVRELVAVMNSGDSTNYADSVKGRFTISRDNAKNTVYLQMNSLKPEDTAVYYCATDFIGVIYDYWGQGTQVTVSS | low polyreactivity |
| QVQLVESGGGLVQAGGSLRLSCAASGRIFWDYAMGWYRQAPGKERELVAGISYSGGSTSYADSVKGRFTISRDNAKNTVYLQMNSLKPEDTAVYYCAARPSGTFFRDYDYWGQGTQVTVSS | low polyreactivity |
| QVQLVESGGGLVQAGGSLRLSCAASGRIFWGSAMGWFRQAPGKERELVAAITRSGGRTYYADSVKGRFTISRDNAKNTVYLQRNSLKPDDTPVYYCAAYYWYKWGYKYGYWGQGTQVTVST | high polyreactivity |
| QVQLVESGGGLVQAGGSLRLSCAASGRIFWGYAMGWSRQAPGKERELVAGITYSGGSTYYADSVKGRFTISRDNAKNTVYLQMNSLKPEDTAVYYCAAAKSYRSGSWYEYWGQGTEVTVSS | high polyreactivity |
| QVQLVESGGGLVQAGGSLRLSCAASGRIFWGYAMGWYRQAPGKERELVAAISSGGSTNYADSVKGRFTISRDNAKNTVYLQMNSLKPEDTAVYYCAKDHAYTSAPHQYASEYYYWGQGTQVTVSS | low polyreactivity |
| QVQLVESGGGLVQAGGSLRLSCAASGRIFWLNAMGWYRQAPGKEREFVASITYGSDSTYYADSVKGRFTISRDNAKNTVYLHMNSLKPEDTAVYYCNREGWHYGPYGYWGQGTQVTVSS | low polyreactivity |
| QVQLVESGGGLVQAGGSLRLSCAASGRIFWSNAMGWYRQAPGKERELVATISSGGRTYYADSVKGRFTISRDNAKNTVYLQMNSLKPEDTAVYYCAAVTFWFWPGMDYWGQGTQVTVSS | low polyreactivity |
| QVQLVESGGGLVQAGGSLRLSCAASGRIFWSYAMGWYRQAPGKEREFVAVITWSGGSTYYADSVKGRFTISRDNAKNTVYLQMNSLKPEDTAVYYCAAGQWWYQVRFDYWGQGTQVTVSS | low polyreactivity |
| QVQLVESGGGLVQAGGSLRLSCAASGRIFWSYAMGWYRQAPGKEREFVAVITWSGGSTYYADSVKGRFTISREYAKNTVYLEMNSLKPEDTAVYYCKADYYGPYRDYGYWGQGTQVTVSS | low polyreactivity |
| QVQLVESGGGLVQAGGSLRLSCAASGRIFWSYGMGWYRQAPGKERELVAAITNTGDGTYYADSVKGRFTISRDNAKNTVYLQMNSLKPEDTAVYYCAVDYRGYWYWEYDYWGQGTQVTVSS | high polyreactivity |
| QVQLVESGGGLVQAGGSLRLSCAASGRIFWVNAMGWYRKAPGKERELVARIRGRSGSTYYADSVKGRFTISRDNAKNPVYLQMNSLKREDTAVYYCAAREFRRPDIFLRDYWGQGTQVTVSS | high polyreactivity |
| QVQLVESGGGLVQAGGSLRLSCAASGRIFWVYAMGWYRQAPGKEREFVADITWTGGSTYYADSVKGRFTISRDNAKNTVYLQMNSLKPEDTAVYYCAADSWSNYDYWGQGTQVTVSS | high polyreactivity |
| QVQLVESGGGLVQAGGSLRLSCAASGRIFWWYAMGWYRQAPGKERELVAAISTGSRTYYADSVKGRFTISRDNAKNTVYLQMNSLKPEDTAVYYCNKDYWYGYSDFDYWGQGTQVTVSS | low polyreactivity |
| QVQLVESGGGLVQAGGSLRLSCAASGRIFWYNAMGWYRQAPGKERELVATITSAGDTNYADSVKGRFTISRDNAKNTVFLQMNSLKPEDTAVYYCAKYYRWLITRRGSNDYWGQGTQVTVSS | high polyreactivity |
| QVQLVESGGGLVQAGGSLRLSCAASGRIFWYYAMGGYRQAPGKERELVASITSGGRTKYADSVKGRFTISRDNAKNTVYLQMNSLKPEDTAVYYCAARLLIDYHADWWVAYDYWGQGTQVTVSS | low polyreactivity |
| QVQLVESGGGLVQAGGSLRLSCAASGRIFWYYAMGWYRQAPGKEREFVAAITRRGGSTYYADSVKGRFTISRDNAKNTVYLQMNSLKPEDTAVYYCAAVGQKRSLGYSWGQGTQVTVSS | low polyreactivity |
| QVQLVESGGGLVQAGGSLRLSCAASGRIFWYYGMGWYRQAPGKERELVASIRSGGSTNYADSVKGRFTISRDNAKNSVYLQMNSLKPEDTAVYYCAARPDYRYHYWGQGTQVTVSS | high polyreactivity |
| QVQLVESGGGLVQAGGSLRLSCAASGRIFYANAMGWYRQAPGKERELVASISTTGDSTYYADSVKGRFTISRDNAKNTDYLQMNSLKPEDTAVYYCNTRGSEYLWYGYDYWGQGTQVTVSS | low polyreactivity |
